Measured values taken from patent US20050244864A1, “Development and use of fluorescent probes of unbound analytes” (priority 2004, published 2005).

Columns and labels:
Type in all cases: binding
[1] = Probe fluorescence ratio response to linoleate:BSA complex, relative to ADIFAB2 (ΔR/ΔRAD2); settings: fluorescence response (R-Ro) relative to ADIFAB2; linoleate
Experimental: (§1) The intensity ratio (“R” value) for a given probe is determined. The ratio is calculated using the following formula: R=Fλ1/Fλ2 wherein, Fλ1, is the measured fluorescence intensities (intensity of sample with probe present minus intensity of sample without probe present) at wavelength 1 and Fλ2 is the measured fluorescence intensities (intensity of sample with probe present minus intensity of sample without probe present) at wavelength 2. Then, for a given probe, ΔR, the difference in R value between the measurement in the presence of the analyte and in the absence of the analyte, is calculated as follows: ΔR=R+analyte−R0 The ΔR value for a given probe is then compared to a reference probe, for example, ADIFAB or ADIFAB2, by ΔR/ΔRreference. This value is an indication of how dissimilar the new probe (derived by mutation of the template) is to the reference. By this method, probes with new and useful characteristics may be identified. Measurements of fluorescence intensities are obtained using standard techniques.
(§2) Mutant probes were screened in 96-well plates by fluorescence response to five fatty acids: arachidonate, linolenate, linoleate, oleate, and palmitate. Each fatty acid was prepared as a complex with BSA by slow addition of 50 mM stocks of fatty acid sodium salts at pH 11 to 600 μM BSA in HEPES buffer. During the formation of complexes, 15 μL aliquots were periodically measured with the reference probe, ADIFAB2, to determine the ΔR value upon excitation at 375 nm and fluorescence emission at 550 and 457 nm using a Fluorolog-3 spectrofluorometer (Jobin Yvon) (Richieri et al, Molecular and Cellular Biochemistry (1999), 192:87-94 & Richieri et al, J. Biol. Chem. (1996), 271:31068-31074). Complexes were prepared such that the final ΔR was approximately 0.4 which correspond to [FFAu] ranging from 100 to 1000 nM depending on FFA type. These complexes buffer or clamp the FFAu levels at fixed values and therefore ensure the accurate comparison of different probes with the same FFAu concentrations. In contrast, addition of FFAu alone (i.e. uncomplexed FFA) introduces considerable uncertainty in comparing different probes because the FFAu level will be affected by binding to the dispensing device, the walls of the multi-well plates and to the probe itself. Thus, the terms “buffer” and “clamp” as used in this particular context herein are taken to mean the ability of a carrier macromolecule to complex with an unbound metabolite so that the unbound metabolite is presented accurately for measurement purposes and is prevented from non-specific binding such as binding to laboratory apparatus.
(§3) Plates were prepared and read in two stages. First, complexes and fatty acid free BSA were diluted to 6 μM BSA in HEPES and added to the 96-well plate at 300 μL per well. A MultiProbe II HT (Perkin Elmer) (an automated liquid handling system) was used to facilitate plate preparation for high throughput screening, but any automated or manual pipetting system will suffice. The background fluorescence was then measured at the same wavelengths as used for ADIFAB2 using a Fluorolog-3 spectrofluorometer with an external Micromax 384 fluorescence plate reader (Jobin Yvon). In the second stage, 30 μL aliquots of the mutant probes were added to multiple wells of the plate, one for each fatty acid and one with fatty acid free BSA only, and the fluorescence intensity at each wavelength was again measured on the plate reader. After subtraction of the background fluorescence, the fluorescence ratio of each well was calculated.
(§4) The fluorescence response was quantitatively compared to ADIFAB2 to search for changes in magnitude and fatty acid profile; for example the response to one fatty acid relative to another. For each probe the ratio differences (AR) between wells with each fatty acid compared to a corresponding well with fatty acid free BSA were recorded. […]

[2] = Probe fluorescence ratio response to linolenate:BSA complex, relative to ADIFAB2 (ΔR/ΔRAD2); settings: fluorescence response (R-Ro) relative to ADIFAB2; linolenate
Experimental: as §1, §2, §3, §4

[3] = Probe fluorescence ratio response to palmitate:BSA complex, relative to ADIFAB2 (ΔR/ΔRAD2); settings: fluorescence response (R-Ro) relative to ADIFAB2; palmitate
Experimental: as §1, §2, §3, §4

[4] = Probe fluorescence ratio response to oleate:BSA complex, relative to ADIFAB2 (ΔR/ΔRAD2); settings: fluorescence response (R-Ro) relative to ADIFAB2; oleate
Experimental: as §1, §2, §3, §4

[5] = Probe fluorescence ratio response to arachidonate:BSA complex, relative to ADIFAB2 (ΔR/ΔRAD2); settings: fluorescence response (R-Ro) relative to ADIFAB2; arachidonate
Experimental: as §1, §2, §3, §4

[6] = Probe fluorescence ratio response to stearate:BSA complex, relative to ADIFAB2 (ΔR/ΔRAD2); settings: fluorescence response (R-Ro) relative to ADIFAB2
[7] = Probe fluorescence ratio response to palmitoleate:BSA complex, relative to ADIFAB2 (ΔR/ΔRAD2); settings: fluorescence response (R-Ro) relative to ADIFAB2

Molecule | ΔR/ΔRAD2 LA [1] | ΔR/ΔRAD2 LNA [2] | ΔR/ΔRAD2 PA [3] | ΔR/ΔRAD2 OA [4] | ΔR/ΔRAD2 AA [5] | ΔR/ΔRAD2 SA [6] | ΔR/ΔRAD2 POA [7]
L1P11 F12: acrylodan-labeled rI-FABP mutein: Y14 L, L38 I, L72 wt, Y117 wt (protein, UniProt P02693 2-132, looked up, variant Y14L L38I, acrylodan label) Fatty acid-binding protein, …: AFDGTWKVDRNENLEKFMEKMGINVVKRKLGAHDNLKITITQEGNKFTVKESSNFRNIDVVFELGVDFAYSLADGTELTGTWTMEGNKLVGKFKRVDNGKELIAVREISGNELIQTYTYEGVEAKRIFKKE | 1.1 | 1.2 | 0.7 | 0.7 | 1.0 |  | 
L1P16 G10: acrylodan-labeled rI-FABP mutein: Y14 W, L38 wt, L72 M, Y117 A (protein, UniProt P02693 2-132, looked up, variant Y14W L72M Y117A, acrylodan label, acrylodan-labeled rI-FABP mutein: Y14 W, L38 wt, L72 M, Y117 A) Fatty acid-binding protein, …: AFDGTWKVDRNENWEKFMEKMGINVVKRKLGAHDNLKLTITQEGNKFTVKESSNFRNIDVVFELGVDFAYSMADGTELTGTWTMEGNKLVGKFKRVDNGKELIAVREISGNELIQTATYEGVEAKRIFKKE | 1.1 | 1.3 | 0.8 | 0.7 | 0.9 |  | 
L1P7 H4: acrylodan-labeled rI-FABP mutein: Y14 I, L38 M, L72 W, Y117 wt (protein, UniProt P02693 2-132, looked up, variant Y14I L38M L72W, acrylodan label, acrylodan-labeled rI-FABP mutein: Y14 I, L38 M, L72 W, Y117 wt) Fatty acid-binding protein, …: AFDGTWKVDRNENIEKFMEKMGINVVKRKLGAHDNLKMTITQEGNKFTVKESSNFRNIDVVFELGVDFAYSWADGTELTGTWTMEGNKLVGKFKRVDNGKELIAVREISGNELIQTYTYEGVEAKRIFKKE | −1.3 | −1.1 | −0.6 | −1.4 | −1.0 |  | 
L1P12 E11: acrylodan-labeled rI-FABP mutein: Y14 L, L38 wt, L72 W, Y117 wt (protein, UniProt P02693 2-132, looked up, variant Y14L L72W, acrylodan label) Fatty acid-binding protein, …: AFDGTWKVDRNENLEKFMEKMGINVVKRKLGAHDNLKLTITQEGNKFTVKESSNFRNIDVVFELGVDFAYSWADGTELTGTWTMEGNKLVGKFKRVDNGKELIAVREISGNELIQTYTYEGVEAKRIFKKE | −0.7 | −0.7 | −0.1 | −1.0 | −0.5 |  | 
L2P1E6: acrylodan-labeled rI-FABP-L72A mutein: M18 L, G31 WT, F55 WT, A73 L (protein, UniProt P02693 2-132, looked up, variant M18L L72A A73L, acrylodan label) Fatty acid-binding protein, …: AFDGTWKVDRNENYEKFLEKMGINVVKRKLGAHDNLKLTITQEGNKFTVKESSNFRNIDVVFELGVDFAYSALDGTELTGTWTMEGNKLVGKFKRVDNGKELIAVREISGNELIQTYTYEGVEAKRIFKKE | 0.1 | 0.1 | 0.0 | 0.1 | 0.4 | 0.2 | 0.1
L1P17 A1: acrylodan-labeled rI-FABP mutein: Y14 I, L38 wt, L72 W, Y117 wt (protein, UniProt P02693 2-132, looked up, variant Y14I L72W, acrylodan label) Fatty acid-binding protein, …: AFDGTWKVDRNENIEKFMEKMGINVVKRKLGAHDNLKLTITQEGNKFTVKESSNFRNIDVVFELGVDFAYSWADGTELTGTWTMEGNKLVGKFKRVDNGKELIAVREISGNELIQTYTYEGVEAKRIFKKE | −1.0 | −0.9 | −0.4 | −1.2 | −0.8 |  | 
L1P8 H2: acrylodan-labeled rI-FABP mutein: Y14 M, L38 M, L72 W, Y117 wt (protein, UniProt P02693 2-132, looked up, variant Y14M L38M L72W, acrylodan label, acrylodan-labeled rI-FABP mutein: Y14 M, L38 M, L72 W, Y117 wt) Fatty acid-binding protein, …: AFDGTWKVDRNENMEKFMEKMGINVVKRKLGAHDNLKMTITQEGNKFTVKESSNFRNIDVVFELGVDFAYSWADGTELTGTWTMEGNKLVGKFKRVDNGKELIAVREISGNELIQTYTYEGVEAKRIFKKE | −1.5 | −1.3 | −0.6 | −1.7 | −1.3 |  | 
L1P1 C3: acrylodan-labeled rI-FABP mutein: Y14 M, L38 wt, L72 W, Y117 wt (protein, UniProt P02693 2-132, looked up, variant Y14M L72W, acrylodan label) Fatty acid-binding protein, …: AFDGTWKVDRNENMEKFMEKMGINVVKRKLGAHDNLKLTITQEGNKFTVKESSNFRNIDVVFELGVDFAYSWADGTELTGTWTMEGNKLVGKFKRVDNGKELIAVREISGNELIQTYTYEGVEAKRIFKKE | −1.1 | −1.0 | −0.4 | −1.3 | −0.9 |  | 
L1P5 A10: acrylodan-labeled rI-FABP mutein: Y14 wt, L38 wt, L72 wt, Y117 A (protein, UniProt P02693 2-132, looked up, variant Y117A, acrylodan label, acrylodan-labeled rI-FABP mutein: Y14 wt, L38 wt, L72 wt, Y117 A) Fatty acid-binding protein, …: AFDGTWKVDRNENYEKFMEKMGINVVKRKLGAHDNLKLTITQEGNKFTVKESSNFRNIDVVFELGVDFAYSLADGTELTGTWTMEGNKLVGKFKRVDNGKELIAVREISGNELIQTATYEGVEAKRIFKKE | 1.2 | 0.7 | 0.4 | 1.1 | 1.5 |  | 
L1P8 D4: acrylodan-labeled rI-FABP mutein: Y14 M, L38 wt, L72 M, Y117 A (protein, UniProt P02693 2-132, looked up, variant Y14M L72M Y117A, acrylodan label, acrylodan-labeled rI-FABP mutein: Y14 M, L38 wt, L72 M, Y117 A) Fatty acid-binding protein, …: AFDGTWKVDRNENMEKFMEKMGINVVKRKLGAHDNLKLTITQEGNKFTVKESSNFRNIDVVFELGVDFAYSMADGTELTGTWTMEGNKLVGKFKRVDNGKELIAVREISGNELIQTATYEGVEAKRIFKKE | 2.0 | 2.0 | 0.9 | 1.1 | 1.6 |  | 
L1P9 G10: acrylodan-labeled rI-FABP mutein: Y14 wt, L38 I, L72 G, Y117 wt (protein, UniProt P02693 2-132, looked up, variant L38I L72G, acrylodan label) Fatty acid-binding protein, …: AFDGTWKVDRNENYEKFMEKMGINVVKRKLGAHDNLKITITQEGNKFTVKESSNFRNIDVVFELGVDFAYSGADGTELTGTWTMEGNKLVGKFKRVDNGKELIAVREISGNELIQTYTYEGVEAKRIFKKE | 0.8 | 0.7 | 0.4 | 0.9 | 1.0 |  | 
L1P17 A8: acrylodan-labeled rI-FABP mutein: Y14 wt, L38 M, L72 G, Y117 F (protein, UniProt P02693 2-132, looked up, variant L38M L72G Y117F, acrylodan label, acrylodan-labeled rI-FABP mutein: Y14 wt, L38 M, L72 G, Y117 F) Fatty acid-binding protein, …: AFDGTWKVDRNENYEKFMEKMGINVVKRKLGAHDNLKMTITQEGNKFTVKESSNFRNIDVVFELGVDFAYSGADGTELTGTWTMEGNKLVGKFKRVDNGKELIAVREISGNELIQTFTYEGVEAKRIFKKE | 0.8 | 0.7 | 0.4 | 0.7 | 1.3 |  | 
